# Experimental data as given in publication PMC2148189 (The Journal of Cell Biology, 1999).
# T1: GST–ponsin-2-F (the full length) (mouse, UniProt Q62417-3 1-724)
# T1 sequence (looked up): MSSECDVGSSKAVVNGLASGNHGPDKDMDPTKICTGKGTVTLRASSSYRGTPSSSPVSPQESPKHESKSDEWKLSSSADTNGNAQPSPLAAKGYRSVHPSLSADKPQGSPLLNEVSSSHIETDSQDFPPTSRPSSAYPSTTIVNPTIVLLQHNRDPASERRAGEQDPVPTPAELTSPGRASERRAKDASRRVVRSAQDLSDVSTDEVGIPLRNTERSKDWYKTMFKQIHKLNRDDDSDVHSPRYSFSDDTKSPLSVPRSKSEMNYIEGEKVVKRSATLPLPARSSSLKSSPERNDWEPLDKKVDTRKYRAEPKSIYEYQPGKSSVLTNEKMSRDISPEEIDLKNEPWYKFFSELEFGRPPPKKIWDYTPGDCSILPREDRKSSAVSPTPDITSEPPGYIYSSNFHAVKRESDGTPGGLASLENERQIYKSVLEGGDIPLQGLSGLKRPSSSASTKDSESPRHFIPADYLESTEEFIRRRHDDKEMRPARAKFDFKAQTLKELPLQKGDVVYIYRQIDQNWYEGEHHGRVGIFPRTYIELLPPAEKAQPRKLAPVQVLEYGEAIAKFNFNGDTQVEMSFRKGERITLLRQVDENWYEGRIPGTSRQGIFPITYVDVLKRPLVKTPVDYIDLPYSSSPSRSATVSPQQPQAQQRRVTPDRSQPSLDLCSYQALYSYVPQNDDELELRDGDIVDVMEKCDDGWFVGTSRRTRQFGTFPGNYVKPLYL
# T2: GST–ponsin-2-C (the COOH-terminal half) (mouse, UniProt Q62417-3 401-724)
# T2 sequence (looked up): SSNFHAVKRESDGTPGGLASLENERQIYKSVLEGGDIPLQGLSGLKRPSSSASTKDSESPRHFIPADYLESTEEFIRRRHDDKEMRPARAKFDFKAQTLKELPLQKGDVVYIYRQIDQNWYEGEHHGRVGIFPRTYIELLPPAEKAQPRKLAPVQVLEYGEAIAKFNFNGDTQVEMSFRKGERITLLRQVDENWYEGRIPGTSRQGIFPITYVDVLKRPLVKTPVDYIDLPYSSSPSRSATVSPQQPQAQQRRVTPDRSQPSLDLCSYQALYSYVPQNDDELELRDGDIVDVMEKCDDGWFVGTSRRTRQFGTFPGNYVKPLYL
# B1: His6–l-afadin-C199 (domain or fragment, UniProt O35889-1 1631-1829, looked up)
# chain: DRVRQEEDGRHQEEERVKRDAEEKRRQEEGYYSRLEAERRRQHEEAARRLLEPEEPGLSRPPLPQDYEPPSQSSAPSAPPPPPQRNASYLKTQVLSPDSLFTAKFVAYDDDDEEENYVPAGPNSYSGSAGTTAGTYDAPRDTREKLSRSQDADLPGSSGAPENLTFRERQRLFSQGQDVSDKVKASRKLTELENELNTK
# How the values were obtained:
# Experiment in all cases: pull-down
# [1] = target: T1, GST–ponsin-2-F (the full length)
# [2] = target: T2, GST–ponsin-2-C (the COOH-terminal half)
# His6–l-afadin-C199 = target: B1
binding result [1],binding result [2],binding result (His6–l-afadin-C199),Binder
binds,binds,,B1
,,binds,"GST–ponsin-2-SH3(2+3) (the second and third SH3 domains) (domain or fragment, mouse, UniProt Q62417-3 543-724, looked up) AEKAQPRKLAPVQVLEYGEAIAKFNFNGDTQVEMSFRKGERITLLRQVDENWYEGRIPGTSRQGIFPITYVDVLKRPLVKTPVDYIDLPYSSSPSRSATVSPQQPQAQQRRVTPDRSQPSLDLCSYQALYSYVPQNDDELELRDGDIVDVMEKCDDGWFVGTSRRTRQFGTFPGNYVKPLYL"
